# The domain aggregation screens of Martell et al. (2025)
# Assay: soluble fraction after stress (log2 fold change); higher = more stays soluble; pooled small domains, quantitative proteomics
# Details: stress: pH 4
# In short: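 With high-throughput quantitative proteomics, pooled custom libraries of small protein domains were measured after pH 4 stress. Each domain's soluble amount after the stress gives a fold change taken as aggregation propensity. Higher log2 values mean more of the domain stayed soluble.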
row,Sequence,soluble fraction (log2)
1,HMTLSAPMPGTVLKIHVKEGQRVRKGQTLVVLEAMKMEHRIQAPKAGEVTNLHFSEGDRVDMGEILVEIG,-0.905
2,HMKTQFGTIVKQLRERKGMDQKQLGEIVGVSDKTVSSWEINRTEPKMGIVQQLADYFGVSTDYLIKG,0.00995
3,HMQKRDQKKRANMLDSLKVGTRIVTIGGIFGEIAKIKDDRIRIKVAEDVEIWIRRAAVGTVIT,≥ 0.43
4,HMVTVPNYSDPRQYVEWGNANGITINRAVGDTIASMSGRVQDVRDSNGNSVIGKKVKKGSTVTVYIYFLK,-0.0785
5,HMLRPEEMIYHEMLDAILDRRLEPGMKLVEEDLAKTFGVSRARIRATFLQLAHDKLINLVPNRGAFVAEP,-0.561
6,HMNNQKATAVKVASGIVNLRSGPATSYETLDTVATGETLSVLAEKDGWFQVSRAGRTGWVAGWVVDVIRE,-0.586
7,HMNDRRQDVFELLKSSERPVSAADLAHKFGVTRQVIVADIALLRASDIDIVSTNRGYILKANL,0.0252
8,HMQDTYQVKLLTNLNIRKSPNGTIVQKGGAKKGIIYTIVETSGTWGRLKSNAGWISVSDKYVTK,0.102
9,HMDHKSQLQEWAQSTLGETPRYVTIAETGPDHDKELTVELIIGRKSYSIAKGKSKKQAEQSAARIALGLLM,-0.504
10,HMEHTPYLTEREADVVRLLVSGLDTAQIAQRLGIKTATVTAHKKHIFLKIGVRNTTQLVAWALIR,-0.557
11,HMQAALEVQASAGVLAPVPPDQRQALLDTLAQDPRPGYQHEAGRVYGFPFGGFEVRFTVSDGLLTVLSAYK,-1.16
12,HMERYSVQVGSFRNMRYAERLKQELQGEDFPAYIEKSGEFNRVRVGKGLTLEEATQLEQVLRKSGYQTVIV,0.0226
13,HMDELVYVPNITGKTVEEARTELQKRDLGLNIAGHQFSDEFGKGRIISQDPAAGSRLKVNRSISVIVSSGQ,0.00524
14,HMIPLKTEAIPVSYGDGAAIIRSLAVAFPSRTFHWDAQTRRIIGQALDEEWQVIRSLVWQLDIP,-1.06
15,HMTMSFSELLRGLRKSRGMSQAELATAVGLSQAQVSQIETGKLLPSPELIEKLAALYGIALGSA,0.0703
16,HMRAGEAVTGQVIGVKEDEIILSIAGSKSEGIITRSEFTNEPNVDLTTKVSVGDELEVKVLKVNDGEGMAS,-0.244
17,HMDEDTWKLYKRAYKKYYARYMKGNMSEEAFKTWAAQAARDRDAAIEQVKAALDENLKAQVIERLKEELNR,0.22
18,HMVISLREINLIGVYGRPNARRALVRLSNGRYVRVEVGSDLDGGKVTAIGDEALNFVKRGRTYAIQLPA,-0.324
19,HMNELPSVIIMKNGRTRPYELQEISKDEEWLNQTIREHGIEPKDIFIAEFWDGRTAFILNDGRIVK,-1.14
20,HMATYTPYDKQGAKLWRVTAYLGMDSVTGKQRNMKKGGFKTKKEAQLYYNQVKLDFENGTLDQ,0.22
21,HMEIFYSARAWAKLNDLVATRTYLQHLGAIAGRIGRSEGLSPDRIPDGRDGAVNGWPLWVWDRAYAEVS,-0.245
22,HMDWNPVRDITAHQVLAILQATHIRAPTVAAEAKRTLSSIFQFAVATLRADIDPVWPVRNALPKNKT,-0.561
23,HMQLGQMIVKLRKEQGLTQETFAKKFNVTRQTVSNWENEKSYPDLHTLVKISDEFHLSLDILLK,0.272
24,HMETGLSNYEFKRIREQAEALLSDGQVRRINDLVDSIKNENAEKVIRVIRFLIDTEELILEDDRVSAKKS,-1.42
25,HMAIEGIFEKYQRRSDQLIPILQDVQKEFGYIAPESVRHISRYLRISENQIFGVSSFYAQFRFT,-0.422

row,Sequence,soluble fraction (log2)
1,HMVEPIKAPMPGMVLKILVEPGQQIEKGQGVLILEAMKMENVLKSSAAATVKSIKVSEKSAVEKGAILVEL,-0.261
2,HMEEILLSVKADGTYWVDQKEVTLDEVGALLDKEPDRLLNIFMDEKVPVRHFINVVDIAKVKREGRFII,-1.74
3,HMSKNVTMPNLVGYSMRQAKAELLSRGLHLGKLIYVNDIATNNVISQLYRNAEIEPGVKIESESYVDLVVG,-0.631
4,HMVVEDDTVLQAVKQAIEENPEAVSDYFEGKSKALNFLVGQVMRITRGKADPAKTNQMVVEELKNR,0.112
5,HMGETDDDFRELEEFVEKTKFDKLGTFMYSKEEGTPAARLPEQIHGNTKKSRYNKIMSIQQKVSNEN,-0.897
6,HMGTGTYQVWSANGLGVRMRSGPGTGYRILAVYSVGTSVTVLQKGAYWSYIRVGSRTGYMMNQFLVSG,-0.268
7,HMRASQGRNELILSLLRGHELSILELLEGLEKQGVRVARPTLTKDLNELVSRGSVEATAPPRSKNRTYRIP,0.302
8,HMDEPADVAIFDGFRQMSEDELKKLYESLNLAMTFKDFLHIQNYFKNEENREPSVTEIRVLDTYWSDH,-0.321
9,HMTPPPTNSREWMEWGISHGLDANLDRSGQVVFYTDDRVVADAAELSGADLERDNMGQFVIYTGAYDKG,-0.743
10,HMVGKIVVPHLEGKPAEMARDILARDGFKSVHEEVLPSAEFGAGRVVRTEPHAGTNVAKTDPVTIFVSVGL,-0.0761
11,HMQNNIEFTVLEEDAQKRLDVLLSEKTALSRSASASLIEEGGVLVNGRKEPKKYKPVRGEIITAILPE,-0.549
12,HMTSTEQQIEQFIGTLVSLGGSAGNQRLLEALGWQDSIYQRVKQQLIDDGRIRPGRGRGGSVVLAE,-0.302
13,HMPPSGPWEQDPPSEAQLKPFNEAMKRTADIDVDLYEKAKKALNDGTITKGNIYDWINREDSPWVLQDGS,-0.468
14,HMQNGNYVVQRQDSLWSIAARISGQTHQPIGEVMNHIKALNEHAFVGGNVNRLRTGTNLNLG,0.125
15,HMNEKLRNYIDTLFEHAPTTVRAVELKEEMFQNLTDKYNDLIAQGKSEEAAFNIAVASIGDVDSLIAGLS,-0.459
16,HMDSVTLGISFNGKTRFTLDFPADAAAADIEKAALEAEQSQRYLEGMTVAKVIVVPGRIVNIVLK,-0.185
17,HMLTRRQSEVLDFIRQFAESESMPPTLHEIAKGMGFSSDNAARDHVRALARKGAIDLVGGTSRGIRLR,-0.331
18,HMNLMQIHVARPPNQLGVFSQEEVAAGLQSGRFLPTDQAWRDGMSAWTPLSQWAEFSSVVAAV,-0.307
19,HMTKLTPLEVNLYAKKLANDPEFGSKHIEPGESFSQAEERLRVQLSQQEYVQKYSKYLKKLKASA,0.0433
20,HMKTKHISIAEGMSLYTRDRSPFYWGYLNIEGVIHKKSLKTDVVDEAIKLLSIWKNELLNSITK,-0.414
21,HMKKDRKKMLKEGIVLFEKILRGMELSPTSEPLKKVLTSFNIQNKEDLYVKLGAGVISSEEVIKELKKK,≥ 0.43
22,HMDEGQEHYVKETDLPFYSEADPASSVIFPLVLNQKLIEKERKDDWIRALEPTTGLVGWVLLKSLSPQQLS,-1.59
23,HMDGVLVYKEGMTVADMATGLGKTIAQVVMKLMQLGIMANQNQSVDRETVELVALDFGYELKD,-1.39
24,HMDNNNQAAFMGALNSLKEYAKVNGNIVTKQDVESYFKDLGLDDSKYQMITGYLLANDITVKG,-0.0847
25,HMTLHEAMEKLFRQVGRPMTTKEIAEKLNENKWYQKADGSPLTPYQIYGRAKNYPALFHREGSIIYLKGS,0.136

row,Sequence,soluble fraction (log2)
1,HMIDSEEVMETIQDLGYSPVFDVKEKFYKIKEEQIGKITLEVHIILRYGMVDLVWIVRENGELLLG,-0.454
2,HMKFPPELVEFIEGLSLLKPPLNYATVHRRAEKLAIKKGWASPSYSTVRNIIRKLSPALTTLAHEG,0.22
3,HMFEKIDINFADIHQLKGLPLNSEQINSIIEYRNQNGFIENIYDLKNVNGISIDKVHELKSYIFIIDV,-1.96
4,HMEYSYKLIDLLVDRFSEEGVDPEEAREYINLFHRFSQGLDPDKRDITKYSWDELYRTVNDKKDS,-0.344
5,HMTPAPHESLTDREMEVLKLLAQGLSNQEIADKLFIGVKTVKYHITNIFSKLGVEDRTQAAIYAHKQGLA,-0.185
6,HMAAINPSALREPATPPEQLSAGDSVLHPRFGRGEILELQQQGGDPRAIVQFINEPKPRTLVLRYAQLRK,0.0977
7,HMANKLSEQIYGSILKDIVNGVYAPREFISEAQIAAKYGVSKAPVKEAMHILASEGFLLSYPKRGYMVN,0.109
8,HMPSTKDGIKEFLSSGAMKGIGRKTASAIVSRFGIDTLKIIEQEPQRLTEVSGIGKKTAQRIAEAFGKH,0.201
9,HMSTMKIVRVKSNLKIGQEITSKDIEVVEVGAYNMPSEVMKNSEDVIGKYASAEMIKGEYVLAAKISDTP,-0.902
10,HMLHIKKGDTVIVNAGESKGQQGKVLEVLVGKERAIVEGVNMVSKHTKPNAKNPQGGIVKKEAPIHISNLQ,0.0699
11,HMRGINDLSLVDPQGRIRKDGEQYVVAFGRHKGKEISQIISQDPSYLNWLLSPKGIEDDATRELIRTQYS,-0.0946
12,HMSADIGAEKAKTIALNHAGVSASNAVFLHAKLDYDDGRRTYEVEFYSGSKEYDYEIDAATGEILSYDFD,0.327
13,HMNEFSYLSELGSEKGDLIKGLQLVQSREGYVSDDAIRAISKHFSIAEAEVEGVLTFYAQFK,-1.25
14,HMRDFLMDSTKNKLSKDQVQLSRIFLWFGNDFGSKAERLEFISRYSGMDFNQPKIDYLTYDWSLNQ,-0.207
15,HMKNLHLVPNVVGMSAKEAKNTLKSFNIKYKPIYGSSNKYDENYIFNQNPRKGKTIKEQEVVTIYISRGAD,≥ 0.43
16,HMSDTFTITTESGRIDKIITAHETTHTRSQVQKWLQDGLVTVNGNPVKANFKVTAGDVVTVTIPEVK,-0.0373
17,HMRRDEDLAHGRELLEKELRKQGLEVSENLKQDKLLEGAKRLGFLEAEDLVVAVGSGKVSAGMAVGRIIG,-0.411
18,HMTKQNVVPLMYRMIDTLEQFIKADVPFNIETRLARVERLRETMVSSSVTTSEKFRQVLEAYTIETD,-1.53
19,HMVDYSMEDSVWNNKKEHVNEWFDANPEHEGRRVIVDGLFAIGDAQPDLRKRHWSSISVVFADLDNSPIG,-1.01
20,HMPRQREVPDVSGWTEQHAKVYLEALGYRVKVIYLEVSSFDKGLVQETSPAKGSKVEEGDTIDLRVSNQE,0.299
21,HMSQNVQDVFLNHVRKSKNPVTVFLVNGVKLQGIITWFDNFSVLLRREGHTQLVYKHAISTVMPSGPIQLF,0.22
22,HMNDLVTWDRYKIELGDTLSEIAQKLVTRVDILKTVNQIQGTRIIAGNSLMVPRTTDTNVLTYL,-0.728
23,HMDLDEELDFLSDADESATKLDLARAYIDMGDKDGARDILAEVLEEGRSEQKREAQALLDSI,-1.76
24,HMQETILFGQQKAINNLSSDTGLSENDLDSYLKKRYKKPLYQLTQSEGADIINGFQDGSLSKNSILDYIKP,0.22
25,HMIEMAGGYRKGDRVELHSLKGAAEHNGKQGTVVGPQGERVKVLLDDSDSKTLALKVTNLTKLESA,0.0709
